# In patent US20150140169:
# T1: alpha-s1 casein from Bos taurus
# T1 chain: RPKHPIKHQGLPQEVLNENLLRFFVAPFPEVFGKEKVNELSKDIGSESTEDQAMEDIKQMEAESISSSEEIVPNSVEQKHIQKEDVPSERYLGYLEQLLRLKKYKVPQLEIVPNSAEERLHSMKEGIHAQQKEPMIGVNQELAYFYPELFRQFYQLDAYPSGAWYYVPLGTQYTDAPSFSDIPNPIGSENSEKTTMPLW
# Molecular target: T1, alpha-s1 casein from Bos taurus
Protein,"(αSN1-1)/(αSN1), 6 hours, 11° C. (average)","(αSN1-1)/(αSN1), 24 hours, 11° C. (average)",hydrolysis of the first cut in alpha-s1-casein,"small, 6 hours, 11° C. [Volume]","small, 16 hours, 30° C. [Volume]","small, 24 hours, 11° C. [Volume]","αs1-I CN, 6 hours, 11° C. [Volume]","αs1-I CN, 6 hours, 11° C. (average) [Volume]","αs1-I CN, 16 hours, 30° C. [Volume]","αs1-I CN, 24 hours, 11° C. [Volume]"
Chymax M (recombinant camel chymosin) (protein) GKVAREPLTSYLDSQYFGKIYIGTPPQEFTVVFDTGSSDLWVPSIYCKSNVCKNHHRFDPRKSSTFRNLGKPLSIHYGTGSMEGFLGYDTVTVSNIVDPNQTVGLSTEQPGEVFTYSEFDGILGLAYPSLASEYSVPVFDNMMDRHLVARDLFSVYMDRNGQGSMLTLGAIDPSYYTGSLHWVPVTLQQYWQFTVDSVTINGVAVACVGGCQAILDTGTSVLFGPSSDILKIQMAIGATENRYGEFDVNCGNLRSMPTVVFEINGRDYPLSPSAYTSKDQGFCTSGFQGDNNSELWILGDVFIREYYSVFDRANNRVGLAKAI,0.5,1.2,shows a slow first cut in alpha-s1 casein,0,9e+06,1.1e+07,1.28e+07,1.81e+07,4.3e+06,1.62e+07
camel chymosin variant #165 (L295W) (protein) GKVAREPLTSYLDSQYFGKIYIGTPPQEFTVVFDTGSSDLWVPSIYCKSNVCKNHHRFDPRKSSTFRNLGKPLSIHYGTGSMEGFLGYDTVTVSNIVDPNQTVGLSTEQPGEVFTYSEFDGILGLAYPSLASEYSVPVFDNMMDRHLVARDLFSVYMDRNGQGSMLTLGAIDPSYYTGSLHWVPVTLQQYWQFTVDSVTINGVAVACVGGCQAILDTGTSVLFGPSSDILKIQMAIGATENRYGEFDVNCGNLRSMPTVVFEINGRDYPLSPSAYTSKDQGFCTSGFQGDNNSEWWILGDVFIREYYSVFDRANNRVGLAKAI,,,,,,,3.09e+07,,,3.78e+07
camel chymosin variant #163 (L295T) (protein) GKVAREPLTSYLDSQYFGKIYIGTPPQEFTVVFDTGSSDLWVPSIYCKSNVCKNHHRFDPRKSSTFRNLGKPLSIHYGTGSMEGFLGYDTVTVSNIVDPNQTVGLSTEQPGEVFTYSEFDGILGLAYPSLASEYSVPVFDNMMDRHLVARDLFSVYMDRNGQGSMLTLGAIDPSYYTGSLHWVPVTLQQYWQFTVDSVTINGVAVACVGGCQAILDTGTSVLFGPSSDILKIQMAIGATENRYGEFDVNCGNLRSMPTVVFEINGRDYPLSPSAYTSKDQGFCTSGFQGDNNSETWILGDVFIREYYSVFDRANNRVGLAKAI,,,,,,,1.48e+07,,,1.79e+07
camel chymosin variant #157 (D290T) (protein) GKVAREPLTSYLDSQYFGKIYIGTPPQEFTVVFDTGSSDLWVPSIYCKSNVCKNHHRFDPRKSSTFRNLGKPLSIHYGTGSMEGFLGYDTVTVSNIVDPNQTVGLSTEQPGEVFTYSEFDGILGLAYPSLASEYSVPVFDNMMDRHLVARDLFSVYMDRNGQGSMLTLGAIDPSYYTGSLHWVPVTLQQYWQFTVDSVTINGVAVACVGGCQAILDTGTSVLFGPSSDILKIQMAIGATENRYGEFDVNCGNLRSMPTVVFEINGRDYPLSPSAYTSKDQGFCTSGFQGTNNSELWILGDVFIREYYSVFDRANNRVGLAKAI,,,,,,,1.76e+07,,,2.38e+07
camel chymosin variant #162 (L295R) (protein) GKVAREPLTSYLDSQYFGKIYIGTPPQEFTVVFDTGSSDLWVPSIYCKSNVCKNHHRFDPRKSSTFRNLGKPLSIHYGTGSMEGFLGYDTVTVSNIVDPNQTVGLSTEQPGEVFTYSEFDGILGLAYPSLASEYSVPVFDNMMDRHLVARDLFSVYMDRNGQGSMLTLGAIDPSYYTGSLHWVPVTLQQYWQFTVDSVTINGVAVACVGGCQAILDTGTSVLFGPSSDILKIQMAIGATENRYGEFDVNCGNLRSMPTVVFEINGRDYPLSPSAYTSKDQGFCTSGFQGDNNSERWILGDVFIREYYSVFDRANNRVGLAKAI,,,,,,,1.65e+07,,,3.1e+07
camel chymosin variant #158 (L295F) (protein) GKVAREPLTSYLDSQYFGKIYIGTPPQEFTVVFDTGSSDLWVPSIYCKSNVCKNHHRFDPRKSSTFRNLGKPLSIHYGTGSMEGFLGYDTVTVSNIVDPNQTVGLSTEQPGEVFTYSEFDGILGLAYPSLASEYSVPVFDNMMDRHLVARDLFSVYMDRNGQGSMLTLGAIDPSYYTGSLHWVPVTLQQYWQFTVDSVTINGVAVACVGGCQAILDTGTSVLFGPSSDILKIQMAIGATENRYGEFDVNCGNLRSMPTVVFEINGRDYPLSPSAYTSKDQGFCTSGFQGDNNSEFWILGDVFIREYYSVFDRANNRVGLAKAI,,,,,,,1.95e+07,,,2.22e+07

# Same assay, conditions: not given
Protein,"αs1-I CN, 24 hours, 11° C. (average) [Volume]","αs1-I CN/αs1 CN, 6 hours, 11° C.","αs1-I CN/αs1 CN, 24 hours, 11° C.","αs1 CN, 6 hours, 11° C. [Volume]","αs1 CN, 6 hours, 11° C. (average) [Volume]","αs1 CN, 16 hours, 30° C. [Volume]","αs1 CN, 24 hours, 11° C. [Volume]","αs1 CN, 24 hours, 11° C. (average) [Volume]","(αSN1-1)/(αSN1), 6 hours, 11° C.","(αSN1-1)/(αSN1), 24 hours, 11° C."
Chymax M (recombinant camel chymosin) (protein) GKVAREPLTSYLDSQYFGKIYIGTPPQEFTVVFDTGSSDLWVPSIYCKSNVCKNHHRFDPRKSSTFRNLGKPLSIHYGTGSMEGFLGYDTVTVSNIVDPNQTVGLSTEQPGEVFTYSEFDGILGLAYPSLASEYSVPVFDNMMDRHLVARDLFSVYMDRNGQGSMLTLGAIDPSYYTGSLHWVPVTLQQYWQFTVDSVTINGVAVACVGGCQAILDTGTSVLFGPSSDILKIQMAIGATENRYGEFDVNCGNLRSMPTVVFEINGRDYPLSPSAYTSKDQGFCTSGFQGDNNSELWILGDVFIREYYSVFDRANNRVGLAKAI,2.13e+07,0.5,1.3,2.73e+07,3.52e+07,0,1.25e+07,1.73e+07,,
camel chymosin variant #165 (L295W) (protein) GKVAREPLTSYLDSQYFGKIYIGTPPQEFTVVFDTGSSDLWVPSIYCKSNVCKNHHRFDPRKSSTFRNLGKPLSIHYGTGSMEGFLGYDTVTVSNIVDPNQTVGLSTEQPGEVFTYSEFDGILGLAYPSLASEYSVPVFDNMMDRHLVARDLFSVYMDRNGQGSMLTLGAIDPSYYTGSLHWVPVTLQQYWQFTVDSVTINGVAVACVGGCQAILDTGTSVLFGPSSDILKIQMAIGATENRYGEFDVNCGNLRSMPTVVFEINGRDYPLSPSAYTSKDQGFCTSGFQGDNNSEWWILGDVFIREYYSVFDRANNRVGLAKAI,,,,2.12e+07,,,5.7e+06,,1.5,6.7
camel chymosin variant #163 (L295T) (protein) GKVAREPLTSYLDSQYFGKIYIGTPPQEFTVVFDTGSSDLWVPSIYCKSNVCKNHHRFDPRKSSTFRNLGKPLSIHYGTGSMEGFLGYDTVTVSNIVDPNQTVGLSTEQPGEVFTYSEFDGILGLAYPSLASEYSVPVFDNMMDRHLVARDLFSVYMDRNGQGSMLTLGAIDPSYYTGSLHWVPVTLQQYWQFTVDSVTINGVAVACVGGCQAILDTGTSVLFGPSSDILKIQMAIGATENRYGEFDVNCGNLRSMPTVVFEINGRDYPLSPSAYTSKDQGFCTSGFQGDNNSETWILGDVFIREYYSVFDRANNRVGLAKAI,,,,2.79e+07,,,1.14e+07,,0.5,1.6
camel chymosin variant #157 (D290T) (protein) GKVAREPLTSYLDSQYFGKIYIGTPPQEFTVVFDTGSSDLWVPSIYCKSNVCKNHHRFDPRKSSTFRNLGKPLSIHYGTGSMEGFLGYDTVTVSNIVDPNQTVGLSTEQPGEVFTYSEFDGILGLAYPSLASEYSVPVFDNMMDRHLVARDLFSVYMDRNGQGSMLTLGAIDPSYYTGSLHWVPVTLQQYWQFTVDSVTINGVAVACVGGCQAILDTGTSVLFGPSSDILKIQMAIGATENRYGEFDVNCGNLRSMPTVVFEINGRDYPLSPSAYTSKDQGFCTSGFQGTNNSELWILGDVFIREYYSVFDRANNRVGLAKAI,,,,3.07e+07,,,1.36e+07,,0.6,1.7
camel chymosin variant #162 (L295R) (protein) GKVAREPLTSYLDSQYFGKIYIGTPPQEFTVVFDTGSSDLWVPSIYCKSNVCKNHHRFDPRKSSTFRNLGKPLSIHYGTGSMEGFLGYDTVTVSNIVDPNQTVGLSTEQPGEVFTYSEFDGILGLAYPSLASEYSVPVFDNMMDRHLVARDLFSVYMDRNGQGSMLTLGAIDPSYYTGSLHWVPVTLQQYWQFTVDSVTINGVAVACVGGCQAILDTGTSVLFGPSSDILKIQMAIGATENRYGEFDVNCGNLRSMPTVVFEINGRDYPLSPSAYTSKDQGFCTSGFQGDNNSERWILGDVFIREYYSVFDRANNRVGLAKAI,,,,3.09e+07,,,1.67e+07,,0.5,1.9
camel chymosin variant #158 (L295F) (protein) GKVAREPLTSYLDSQYFGKIYIGTPPQEFTVVFDTGSSDLWVPSIYCKSNVCKNHHRFDPRKSSTFRNLGKPLSIHYGTGSMEGFLGYDTVTVSNIVDPNQTVGLSTEQPGEVFTYSEFDGILGLAYPSLASEYSVPVFDNMMDRHLVARDLFSVYMDRNGQGSMLTLGAIDPSYYTGSLHWVPVTLQQYWQFTVDSVTINGVAVACVGGCQAILDTGTSVLFGPSSDILKIQMAIGATENRYGEFDVNCGNLRSMPTVVFEINGRDYPLSPSAYTSKDQGFCTSGFQGDNNSEFWILGDVFIREYYSVFDRANNRVGLAKAI,,,,2.63e+07,,,9.8e+06,,0.7,2.3
